Substrate in this series: CCn1c(=NN=c2sc3cc(S(=O)(=O)O)ccc3n2CC)sc2cc(S(=O)(=O)O)ccc21
Briefly: purified protein. The class given is biochemical, Bacillus subtilis. The following applies: no H2O2, applied potential −0.190 V, aerobic (O2), pH 7.6, 298 K, 20 mM TRIS-HCl, 200 mM KCl, 25.0 °C.

B1: BsDyP (Bacillus subtilis subsp. subtilis str. 168) (protein)
chain: IGASGLGGLAPLVQTAAKPSKKDEKEEEQIVPFYGKHQAGITTAHQTYVYFAALDVTAKDKSDIITLFRNWTSLTQMLTSGKKMSAEQRNQYLPPQDTGESADLSPSNLTVTFGFGPGFFEKDGKDRFGLKSKKPKHLAALPAMPNDNLDEKQGGGDICIQVCADDEQVAFHALRNLLNQAVGTCEVRFVNKGFLSGGKNGETPRNLFGFKDGTGNQSTKDDTLMNSIVWIQSGEPDWMTGGTYMAFRKIKMFLEVWDRSSLKDQEDTFGRRKSSGAPFGQKKETDPVKLNQIPSNSHVSLAKSTGKQILRRAFSYTEGLDPKTGYMDAGLLFISFQKNPDNQFIPMLKALSAKDALNEYTQTIGSALYACPGGCKKGEYIAQRLLES
notes: signal (Tat) peptide deleted; plasmid pVB4; expressed in E. coli Tuner; purified
In general, Km refers to the concentration of substrate that gives half-maximal velocity. A word on the kcat: it is the maximal rate divided by the concentration of active sites. Broadly, the kcat/Km is the turnover number divided by the Michaelis constant. For the protein B1, the Km is 1155 ± 100 µM, the turnover number (kcat) came out at 18 ± 1 s⁻¹ and the kcat/Km is 16000 M⁻¹ s⁻¹.

The record behind these values is publication PMC8653965, “Direct Electrochemical Generation of Catalytically Competent Oxyferryl Species of Classes I and P Dye Decolorizing Peroxidases” (International Journal of Molecular Sciences, 2021).
